Laboratory results as given in patent publication US20200207857A1.
Residue numbers refer to the chain shown, from its start. One block for each binder: values may come before it.

Legend:
[1] = molecular target: Recombinant protein Claudin 18.2; assay: ELISA, recombinant Claudin 18.2 coated at 4.5 ug/mL (Example 67), OD370; Kd table under the graph, no unit in the table, unit from the x axis log[antibody] nM
[2] = molecular target: Recombinant protein Claudin 18.2; assay: ELISA on plate-coated recombinant Claudin 18.2, OD370; Kd table under the graph, no unit in the table, unit from the x axis log[antibody] nM
[3] = molecular target: human Claudin 18.1 (CLDN 18.1) expressed on HEK293 cells (human) (UniProt P56856); assay: flow cytometry, 293T-CLDN18.1 cells, FL1-A histogram, gate P1; untransfected 293T: M1 0.1%
human Claudin 18.1 (CLDN 18.1) expressed on HEK293 cells (human), sequence (P56856 whole entry): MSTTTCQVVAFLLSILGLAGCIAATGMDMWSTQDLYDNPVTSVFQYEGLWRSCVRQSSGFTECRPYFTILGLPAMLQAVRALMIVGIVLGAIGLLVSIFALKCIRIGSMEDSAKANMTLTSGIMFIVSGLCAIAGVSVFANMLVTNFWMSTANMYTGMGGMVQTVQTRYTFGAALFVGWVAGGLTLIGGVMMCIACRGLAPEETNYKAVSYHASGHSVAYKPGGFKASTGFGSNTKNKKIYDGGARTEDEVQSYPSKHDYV

[4] = molecular target: Recombinant protein Claudin 18.2; assay: ELISA as in Example 1, recombinant Claudin 18.2 coated on the plate, OD450, linear axis in ng/ml
[5] = molecular target: human Claudin 18.1 (CLDN 18.1) expressed on HEK293 cells (human) (UniProt P56856); assay: flow cytometry, 293T-CLDN18.1 cells, FL1-A histogram, gate P1; untransfected 293T: M1 0.0%
[6] = molecular target: Recombinant protein Claudin 18.2; assay: binding study 'as in Example 1'; method not named (ELISA on recombinant Claudin 18.2 assumed)
[7] = molecular target: Recombinant protein Claudin 18.2; assay: ELISA on plate-coated recombinant Claudin 18.2, OD450; Kd table under the graph, no unit in the table, unit from the x axis log[antibody] nM
[8] = molecular target: Recombinant protein Claudin 18.2; assay: ELISA-based assay on Claudin 18.2, y axis RLU; Kd table under the graph, no unit in the table, unit from the x axis log[antibody] nM
[9] = molecular target: Recombinant protein Claudin 18.2; assay: ELISA, recombinant Claudin 18.2 coated at 4.5 ug/mL (Example 67), OD450; Kd box under the graph without column head (the only rising curve is h5C9o_CLN18.2), no unit in the box, unit from the x axis log[antibody] nM
[10] = molecular target: Recombinant protein Claudin 18.2; assay: ELISA on plate-coated recombinant Claudin 18.2, OD450; Kd table under the graph, no unit in the table, unit from the x axis log[antibody] nM; remark: listed apart in the source
[11] = molecular target: Recombinant protein Claudin 18.2; assay: ELISA-based assay on Claudin 18.2, y axis RLU; Kd table under the graph, no unit in the table, unit from the x axis log[antibody] nM; remark: listed apart in the source
[12] = molecular target: Recombinant protein Claudin 18.2; assay: as above; remark: listed apart in the source

Recombinant protein Claudin 18.2, sequence (chain, as listed by the source limits assumed, form in doubt): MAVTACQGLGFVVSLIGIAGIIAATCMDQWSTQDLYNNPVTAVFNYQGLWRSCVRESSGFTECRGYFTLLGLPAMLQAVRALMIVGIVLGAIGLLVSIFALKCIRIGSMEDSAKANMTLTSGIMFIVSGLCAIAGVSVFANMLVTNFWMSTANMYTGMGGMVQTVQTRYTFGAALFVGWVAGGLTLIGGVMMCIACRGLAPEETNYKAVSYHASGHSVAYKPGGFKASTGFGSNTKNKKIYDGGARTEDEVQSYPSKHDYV

B1: chimeric anti-CLDN 18.2 antibody ch5C9 (antibody, human IgG1, kappa, V domains shown)
VH: EVKLQESGPELKKPGETVKISCKASGYTFTNYGMNWVKQAPGKGLKWMGWINMYTGEPTYADDFKGRFAFSLETSASTAYLQINNLKNEDTATYFCSRLYNGNSLDYWGQGTSLTVSS
VL: DILLTQSPLSLTVTAGEKVTMSCKSSQSLLNSGNQKSYLTWYQQKPGQPPKLLLYWASTRESGVPARFTGSGSGTDFSLTISSVQTEDLAVYYCQNAYSFPFTFGSGTKLEINR
Kd [1]: 98.8 pM

B3: chimeric anti-CLDN 18.2 antibody ch15G11 (antibody, V domains shown)
VH: EVQLQESGGGLVQPGGSRKLSCAASGFSFSSFGMHWVRQAPEKGLEWVAFISSGSSPIYYADTVKGRFTVSRDNPKNTLFLQMTSLRSEDTAMYFCARNYYGNAMDYWGQGSSVTVSS
VL: DIMMTQSPLSLTVTAGEKVTMNCKSSQSLLNGGNQKNYLAWYQQKPGQPPKLLIYWASTRESGVPARFTGSGSGTDFTLTINTVQAEDLAVYYCQNDYFYPLTFGTGTKLELKR
Kd [1]: 93.9 pM

B5: Anti-CLDN 18.2-5H1 (antibody, V domains shown)
VH: VQLQESGAELVRPGTSVKVSCKASGYAFTNYLIEWIKQRPGQGLEWIGMINPGSGGTKYNEKFKGKASLTADKTSSTAYMQLSSLTSDDSAVYFCARGGFGNSFAYWGQGTLVTVSA
VL: DIMMTQSPLSLTVTAGEKVTMTCKSSQSLLNSGNLKNYLTWYQQKPGQPPKLLTYWASTRESGVPTRFTGSGSATDFTLTISSVQAEDLAVYYCQNAYFYPYTFGGGTKLEIK
Kd [6]: 320 pM

B6: chimeric anti-CLDN 18.2 antibody ch9A1 (antibody, human IgG1, kappa, V domains shown)
VH: EVQLQQSGAELVRPGTSVKVSCKASRYAFTNYLIEWVKQRPGQGLEWIGMINPGSGGTHYNEKFKVKATLTADKSSSTAYMQLSSLTSDDSAVYFCARGGFGNSFAYWGQGTLVTVSA
VL: DILLTQSPLSLTVTAGEKVTMSCKSSQSLLNGGNLKNYLTWYQQKPGQPPKLLTYWASTRESGVPVRFTGSGSGTDFTLTISSVQAEDLAVYYCQNGYFYPYTFGGGTKLEIKR
Kd [1]: 101 pM

B12: humanized anti-Claudin 18.2 antibody h5C9oao (antibody, human IgG1, kappa, V domains shown)
VH: EVQLVESGGGLVQPGGSLRLSCAVSGYTFSMNWVRQAPGKGLEWVAWINMYTGEPTYADDFKGRFTISRDDSKNTLYLQMNSLRAEDTAVYYCARLARGNSMDYWGQGTLVTVSS
VL: DIQMTQSPSSLSASVGDRVTITCKSSQSLLNSGNQKSYLTWYQQKPGKAPKLLIYWASTLESGVPSRFSGSGSGTDYTLTISSLQPEDFATYYCQNAYFFPFTFGQGTKVEIKR
Kd [7]: 134 pM
Kd [8]: 102 pM

B14: h5C9o Fc mutation (antibody, V domains shown)
VH: B12 VH with A97Y, R98N, M102L
VL: B12 VL with F99S
Kd [7]: 114 pM
Kd [8]: 162 pM

The remaining lines, values ahead:

Kd [2]: 66.2 pM
% of cells in gate M1 [3]: 0.7%
EC50 (read off the curve) [4]: 0.06 µg/mL
B2: Anti-CLDN 18.2-15G11 (antibody, V domains shown)
VH: VQLQESGGGLVQPGGSRKLSCAASGFSFSSFGMHWVRQAPEKGLEWVAFISSGSSPIYYADTVKGRFTVSRDNPKNTLFLQMTSLRSEDTAMYFCARNYYGNAMDYWGQGSSVTVSS
VL: DIMMTQSPLSLTVTAGEKVTMNCKSSQSLLNGGNQKNYLAWYQQKPGQPPKLLIYWASTRESGVPARFTGSGSGTDFTLTINTVQAEDLAVYYCQNDYFYPLTFGTGTKLELK

Kd [2]: 53.6 pM
% of cells in gate M1 [5]: 1.3%
EC50 (read off the curve) [4]: 0.06 µg/mL
B4: Anti-CLDN 18.2-9A1 (antibody, V domains shown)
VH: B5 VH with E5Q, G25R, I36V, K58H, G65V, S68T, T74S
VL: B5 VL with M3L, M4L, T22S, S32G, T66V, A74G, A97G

Kd [2]: 69.9 pM
% of cells in gate M1 [3]: 0.7%
EC50 (read off the curve) [4]: 0.05 µg/mL
B7: Anti-CLDN 18.2-5C9 (antibody, V domains shown)
VH: VKLQESGPELKKPGETVKISCKASGYTFTNYGMNWVKQAPGKGLKWMGWINMYTGEPTYADDFKGRFAFSLETSASTAYLQINNLKNEDTATYFCSRLYNGNSLDYWGQGTSLTVSS
VL: DILLTQSPLSLTVTAGEKVTMSCKSSQSLLNSGNQKSYLTWYQQKPGQPPKLLLYWASTRESGVPARFTGSGSGTDFSLTISSVQTEDLAVYYCQNAYSFPFTFGSGTKLEIN

Kd [6]: 267 pM
B8: Anti-CLDN 18.2-7H1 (antibody, V domains shown)
VL: DIVLTQSPAILSVSPGEKVTMTCRASSSVSYMHWYQQKPGSSPKPWIYGTSNLASGVPARFSGSGSGTSYSLTISRVEAEDAATYYCQQWSSNPLTFGTGTKLELK
V domain: KVQLQESGGGSVQPGGSLKLSCAASGFTFSSYSMSWVRQTPEKRLEWVAYISNLGGATYYPDTVKGRFTVSRDNARNSLYLQMTSLKSDDTAMYYCTRHNYGYDGFADWGQGTLATVSA

Kd [7]: 128 pM
Kd [8]: 140 pM
Kd [9]: 87.3 pM
Kd [10]: 89.2 pM
B9: Anti-CLDN 18.2-5C9o (humanized antibody h5C9o) (antibody, V domains shown)
VH: B12 VH with A97Y, R98N, M102L
VL: DIQMTQSPSSLSASVGDRVTITCKSSQSLLNSGNQKSYLTWYQQKPGKAPKLLIYWASTLESGVPSRFSGSGSGTDYTLTISSLQPEDFATYYCQNAYSFPFTFGQGTKVEIK

Kd [7]: 140 pM
Kd [8]: 109 pM
Kd [11]: 183 pM
B10: Anti-CLDN 18.2-5C9oae (humanized antibody h5C9oae) (antibody, human IgG1, V domains shown)
VH: B12 VH with A97Y, M102L
VL: B9 VL with S99F

Kd [7]: 129 pM
Kd [8]: 130 pM
Kd [10]: 86.3 pM
Kd [11]: 213 pM
Kd [12]: 160 pM
B11: Anti-CLDN 18.2-5C9ob (humanized antibody h5C9ob) (antibody, human IgG1, V domains shown)
VH: B12 VH with A97Y, R98N, M102L
VL: B9 VL with S99F

Kd [8]: 120 pM
B13: humanized anti-Claudin 18.2 antibody h5C9oan (antibody, human IgG1, kappa, V domains shown)
VH: B12 VH with L96S, A97S, S101G, M102F
VL: B12 VL
